Patent publication US20230414712A1, “PHARMACEUTICAL COMPOSITION FOR PREVENTING OR TREATING CANCER COMPRISING RECOMBINANT STABILIZED GALECTIN 9 PROTEIN” (GBIOLOGICS INC., priority 2020, published 2023)

Columns and labels:
DLD-1 cells [1] = assay: colony formation assay; format: cell-based; settings: 0, 50, 100, 250, 500, 1000 nM, 10 days, 3% v/v Matrigel; FIG. 2
Protocol: To investigate the anti-cancer activity of the recombinant stabilized galectin-9 protein having the amino acid sequence of SEQ ID NO: 1, the proliferation of cancer cells by colony formation assay was analyzed by treating KRAS mutant colorectal cancer cell lines with the recombinant protein.
Specifically, DLD-1 cells, a colorectal cancer cell line with KRAS gene mutation, were seeded in 6-well plates at 5×10^3 cells per well in a medium containing 3% v/v Matrigel, and then treated with the recombinant protein from <Preparation Example 1> at concentrations of 0, 50, 100, 250, 500, 1000 nM and incubated for 10 days. Then, after washing with phosphate-buffered saline, colonies were stained with a solution of 0.05% crystal violet, 1% formaldehyde, and 1% methanol in phosphate-buffered saline for 20 minutes at room temperature. The plate was then washing with distilled water and dried at room temperature for 16 hours. The number of colonies was measured by capturing images of the stained and dried plates and analyzing the images (FIG. 2).

[2] = system: KRAS gene mutated pancreatic cancer (MIA PaCa-2) mouse model; assay: survival rate in pancreatic cancer-induced mouse model; format: in vivo, mice; settings: 50 days, tumor size of 1700 mm3 or more considered as time of death, FIG. 6
Protocol: (§1) To investigate the anticancer activity of the recombinant stabilized galectin-9 protein having the amino acid sequence SEQ ID NO: 1, KRAS gene mutant pancreatic cancer cell line MIA PaCa-2 cells were transplanted and grown for two weeks to form pancreatic tumor tissue subcutaneously in mice, and the mice were then administered with the recombinant protein, and changes in body weight were monitored.
(§2) Specifically, the experiments were conducted in accordance with the Guide for the Care and Use of Laboratory Animals (NRC), and the mice were managed accordingly. After collecting mice with an average pancreatic cancer size of 200 nm 3, they were randomly classified into 5 group.
(§3) The experimental groups were classified into five groups (5 mice per group) as follows: control group (PBS), low-dose recombinant stabilized galectin-9 protein administration group (seal-9 0.5 mg/kg), high-dose recombinant stabilized galectin-9 protein administration group (seal-9 5 mg/kg), gemcitabine group (Gemcitabine 50 mg/kg), and combination of seal-9 and gemcitabine (seal-9 5 mg/kg+Gemcitabine 50 mg/kg). The mice were administered with seal-9 the given concentrations twice a week and/or gemcitabine once a week by intraperitoneal injection for 50 days, while monitoring changes in body weight (FIG. 4).
In this case, a pancreatic cancer tissue size of 1700 mm3 or more was considered as the time of death.

[3] = body weight changes in pancreatic cancer-induced mouse model; format: in vivo, mice; settings: intraperitoneal, 50 days, FIG. 4
Protocol: as §1, §2, §3

[4] = system: KRAS wild-type or mutant colorectal, pancreatic, lung cancer and ovarian cancer cells (HT-29, DLD-1, HCT-116, SW620, Bx-pc3, L3.6pl, AsPC-1, H226, A549 …); assay: SRB (sulforhodamine B) cell growth assay in cancer cell lines; format: cell-based; settings: 3.2, 16, 80, 400, 2000 or 10,000 nM, 72 hours; compared to negative control NIH3T3 cells; FIG. 1A
Protocol: To investigate the anticancer activity of the recombinant stabilized galectin-9 protein having the amino acid sequence of SEQ ID NO: 1, cell growth and apoptosis were observed after treatment of the recombinant protein in cancer cell lines having a KRAS wild type or KRAS gene mutation.
Specifically, to investigate the anticancer activity of the recombinant stabilized galectin-9 protein having the amino acid sequence of SEQ ID NO: 1, the protein was treated on cancer cell lines with KRAS wild-type or KRAS gene mutation, and the following cell lines were used: HT-29 for KRAS wild-type pancreatic cancer, DLD-1, HCT-116, and SW620 for KRAS gene-mutated colon cancer, Bx-pc3 for KRAS wild-type pancreatic cancer, L3.6pl and AsPC-1 for KRAS gene-mutated pancreatic cancer, H226 for KRAS wild-type lung cancer, A549 for KRAS gene-mutated lung cancer, SKOV3ip1 for KRAS wild-type ovarian cancer, and SKOV3 for KRAS gene-mutated ovarian cancer, and the cells were seeded at 5×10^3 cells per well in a 96-well plate and cultured at 37° C. for one day, and then the recombinant protein was treated with concentrations of 3.2, 16, 80, 400, 2000, or 10,000 nM per well, and cultured for 72 hours. After 72 hours of incubation, the cell growth was confirmed using the SRB (sulforhodamine B) assay kit (Abcam, US) according to the manufacturer's instructions. […]

[5] = system: KRAS gene mutant pancreatic cancer (MIA PaCa-2) mouse model; assay: pancreatic cancer tissue size (MRI) in pancreatic cancer-induced mouse model; format: in vivo, mice; settings: 50 days, FIG. 5; for size of pancreatic cancer tissue compared to the control group: intraperitoneal
Protocol: as §1, §2, §3
To investigate the anticancer activity of the recombinant stabilized galectin-9 protein having the amino acid sequence of SEQ ID NO: 1, the KRAS gene mutant pancreatic cancer (MIA PaCa-2) mouse model was established by using the same method described in Example <2-1> above, and seal-9 and/or gemcitabine were administered into the mice for 50 days and the change in the size of the pancreatic cancer tissue was evaluated using magnetic resonance imaging (MRI) (FIG. 5).

DLD-1 cells [6] = assay: Annexin-APC and 7-AAD apoptosis analysis by flow cytometer; format: cell-based; settings: 1,000 nM, 24 or 48 hours; FIG. 1B
Protocol: In addition, DLD-1 cells, a colorectal cancer cell line with KRAS gene mutation, were seeded at a density of 1×10^5 cells per well in a 6-well plates, cultured for 1 day at 37° C. and the recombinant protein from <Preparation Example 1> was then added to each well at a concentration of 1,000 nM, and the cells were further cultured for either 24 or 48 hours. After washing the cultured cells twice with cold PBD, the cells were stained using Annexin-APC and 7-AAD apoptosis kit (Biolegend, US) according to the manufacturer's instructions, and apoptosis was analyzed using a flow cytometer (CytoFLEX, Beckmancoulter) (FIG. 1B).

[7] = high-dose, seal-9 5 mg/kg twice a week
[8] = low-dose, seal-9 0.5 mg/kg twice a week

B1: seal-9: recombinant stabilized galectin-9 protein of SEQ ID NO: 1; linker region deleted, CCRD positions 1 to 10 deleted, Ala at position 13 substituted with Pro (protein)
chain: MAFSGSQAPYLSPAVPFSGTIQGGLQDGLQITVNGTVLSSSGTRFAVNFQTGFSGNDIAFHFNPRFEDGGYVVCNTRQNGSWGPEERKTHMPFQKGMPFDLCFLVQSSDFKVMVNGILFVQYFHRVPFHRVDTISVNGSVQLSYISFQHPPYPMPFITTILGGLYPSKSILLSGTVLPSAQRFHINLCSGNHIAFHLNPRFDENAVVRNTQIDNSWGSEERSLPRKMPFVRGQSFSVWILCEAHCLKVAVDGQHLFEYYHRLRNLPTINRLEVGGDIQLTHVQT
modifications: sGal-9
notes: linker region deleted, CCRD positions 1 to 10 deleted, Ala at position 13 substituted with Pro
- colony formation ability / proliferation of cancer cells (DLD-1 cells [1]): inhibited the proliferation of cancer cells in a concentration-dependent manner
- survival rate ([2]; high-dose, seal-9 5 mg/kg): superior survival rates
- survival rate ([2]; low-dose, seal-9 0.5 mg/kg): superior survival rates
- changes in body weight [3, 7]: no significant changes in body weight
- changes in body weight [3, 8]: no significant changes in body weight
- cell growth [4]: inhibited cell growth
- size of pancreatic cancer tissue compared to the control group [5, 7]: decreased significantly
- size of pancreatic cancer tissue compared to the control group [5, 8]: decreased significantly
- size of pancreatic cancer tissue, seal-9 compared with conventional chemotherapy ([5]; seal-9 0.5 or 5 mg/kg vs gemcitabine 50 mg/kg): superior effect at lower doses than conventional chemotherapy
- apoptosis (DLD-1 cells [6]): induced apoptosis
